pKd: −log10 of the molar value.
Key:
[1] = biological target: FVIIIa (activated factor VIII) (UniProt P00451)
[2] = biological target: FVIIIa (activated factor VIII) (UniProt P00451); experiment: apparent Kd; 0.1 nM FVIIIa titrated with 0-5 nM FIXa, 100 µM PSPC vesicles, 5 mM CaCl2; complex read by the initial rate of FXa generation, quadratic fit
[3] = biological target: FVIIIa (activated factor VIII) (UniProt P00451); experiment: apparent Kd from FXa generation, as FIG. 1, in the presence of 100 nM hirudin
[4] = biological target: FVIIIa (activated factor VIII) (UniProt P00451); experiment: apparent Kd from FXa generation, as FIG. 1, in the absence of hirudin

UniProt P00451, sequence (P00451 whole entry, looked up): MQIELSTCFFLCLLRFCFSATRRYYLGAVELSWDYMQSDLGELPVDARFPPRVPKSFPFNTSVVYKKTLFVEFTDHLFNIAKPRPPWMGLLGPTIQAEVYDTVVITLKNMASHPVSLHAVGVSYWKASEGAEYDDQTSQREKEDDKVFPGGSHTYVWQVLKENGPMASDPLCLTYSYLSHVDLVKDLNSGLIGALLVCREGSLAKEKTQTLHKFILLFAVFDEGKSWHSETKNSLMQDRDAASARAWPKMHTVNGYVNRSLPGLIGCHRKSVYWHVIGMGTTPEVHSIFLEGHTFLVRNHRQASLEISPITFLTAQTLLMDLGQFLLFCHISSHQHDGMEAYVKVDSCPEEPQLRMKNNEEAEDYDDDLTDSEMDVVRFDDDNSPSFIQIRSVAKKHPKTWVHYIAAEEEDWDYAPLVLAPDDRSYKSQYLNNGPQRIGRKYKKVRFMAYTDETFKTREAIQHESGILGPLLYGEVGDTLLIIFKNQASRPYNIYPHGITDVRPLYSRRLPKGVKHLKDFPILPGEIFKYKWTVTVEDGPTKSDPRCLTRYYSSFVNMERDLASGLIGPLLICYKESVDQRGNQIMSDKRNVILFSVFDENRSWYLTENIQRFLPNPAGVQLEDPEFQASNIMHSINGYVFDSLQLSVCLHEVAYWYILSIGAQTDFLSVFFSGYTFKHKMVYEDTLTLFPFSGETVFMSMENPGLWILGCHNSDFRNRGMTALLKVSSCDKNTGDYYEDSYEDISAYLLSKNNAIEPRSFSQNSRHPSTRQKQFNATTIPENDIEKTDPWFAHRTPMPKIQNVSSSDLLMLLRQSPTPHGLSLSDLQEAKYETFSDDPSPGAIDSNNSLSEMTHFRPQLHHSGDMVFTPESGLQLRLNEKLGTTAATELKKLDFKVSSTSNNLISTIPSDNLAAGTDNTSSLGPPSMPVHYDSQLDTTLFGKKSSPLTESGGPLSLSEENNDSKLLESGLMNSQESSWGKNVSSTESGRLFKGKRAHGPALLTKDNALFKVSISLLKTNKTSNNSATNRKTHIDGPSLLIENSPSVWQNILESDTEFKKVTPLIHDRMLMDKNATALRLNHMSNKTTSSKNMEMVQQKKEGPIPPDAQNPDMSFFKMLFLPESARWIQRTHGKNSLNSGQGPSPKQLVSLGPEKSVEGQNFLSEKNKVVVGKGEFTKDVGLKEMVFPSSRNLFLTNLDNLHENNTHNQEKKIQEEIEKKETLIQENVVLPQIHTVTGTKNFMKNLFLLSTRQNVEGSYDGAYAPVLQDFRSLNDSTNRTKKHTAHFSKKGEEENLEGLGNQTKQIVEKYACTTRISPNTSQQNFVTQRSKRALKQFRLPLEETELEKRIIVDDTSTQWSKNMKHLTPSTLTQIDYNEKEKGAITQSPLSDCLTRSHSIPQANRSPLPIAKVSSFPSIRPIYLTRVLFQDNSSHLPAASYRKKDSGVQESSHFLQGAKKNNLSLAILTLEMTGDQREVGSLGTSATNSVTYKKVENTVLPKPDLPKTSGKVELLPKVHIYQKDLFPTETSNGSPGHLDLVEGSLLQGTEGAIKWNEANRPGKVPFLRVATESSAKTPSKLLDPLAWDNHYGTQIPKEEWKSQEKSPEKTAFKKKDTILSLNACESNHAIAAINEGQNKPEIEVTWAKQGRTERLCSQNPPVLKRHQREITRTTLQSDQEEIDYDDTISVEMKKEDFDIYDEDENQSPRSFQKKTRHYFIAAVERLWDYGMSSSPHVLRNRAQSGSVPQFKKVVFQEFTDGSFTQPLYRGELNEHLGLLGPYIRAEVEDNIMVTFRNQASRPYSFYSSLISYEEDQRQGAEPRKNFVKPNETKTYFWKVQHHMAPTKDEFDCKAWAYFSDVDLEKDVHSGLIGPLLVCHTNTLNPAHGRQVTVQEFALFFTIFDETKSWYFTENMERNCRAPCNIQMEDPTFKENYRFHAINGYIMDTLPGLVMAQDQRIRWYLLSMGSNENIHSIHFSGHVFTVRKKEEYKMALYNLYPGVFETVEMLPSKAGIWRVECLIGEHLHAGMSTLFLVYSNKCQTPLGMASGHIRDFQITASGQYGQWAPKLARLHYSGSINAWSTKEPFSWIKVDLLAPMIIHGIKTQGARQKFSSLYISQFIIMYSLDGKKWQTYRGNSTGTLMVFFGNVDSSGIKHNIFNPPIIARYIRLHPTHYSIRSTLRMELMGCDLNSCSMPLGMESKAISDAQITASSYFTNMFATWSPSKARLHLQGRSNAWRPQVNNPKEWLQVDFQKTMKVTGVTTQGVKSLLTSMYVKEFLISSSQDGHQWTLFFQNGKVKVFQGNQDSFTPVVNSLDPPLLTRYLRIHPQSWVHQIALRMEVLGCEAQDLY

Substance | Bmax, in the absence of hirudin [1] [nM FXa/min] | Bmax, in the presence of 100 nM hirudin [1] [nM FXa/min] | maximum rate of FX cleavage (Bmax of FIG. 1) [1] | other results
R338A-FIXa (activated Factor IX with alanine at position 338) | 3.39±0.12 | 3.38±0.19 | 3.56±0.15 nM FXa/min | –
plasma FIXa (activated purified normal human plasma Factor IX) | – | – | 1.30 ± 0.10 nM/min | –
plasma FIXa (activated purified normal human plasma Factor IX) (from UniProt P00740 47-191; P00740 227-461) (enzyme) | – | – | – | pKd [2]: 9.00
recombinant wt-FIXa (activated recombinant wild type Factor IX) | 1.27±0.12 | 1.35±0.15 | – | –
recombinant wt-FIXa (activated recombinant wild type Factor IX) (from UniProt P00740 47-191; P00740 227-461) (enzyme) | – | – | – | pKd [3]: 9.07; pKd [4]: 9.42

Source: patent publication US20020031799A1
